Substrate in series [1]: C=CCN=C=S
The experiment in a line: purified protein. Format: biochemical, Spodoptera littoralis. To be noted: 4 mM GSH (saturating), 100 mM potassium phosphate pH 6.5, 25 °C, 2.4% acetonitrile.

Substrate in series [2]: S=C=NCc1ccccc1
The experiment in a line: purified protein. Format: biochemical, Spodoptera littoralis. To be noted: 4 mM GSH (saturating), 100 mM potassium phosphate pH 6.5, 25 °C, 2.4% acetonitrile.

Broadly, the Km is the concentration of substrate that gives half-maximal velocity. As a reminder, the Vmax is the top rate of the reaction or transport when substrate is in excess. Broadly, the kcat is the maximal rate divided by the concentration of active sites. The kcat/Km is the second-order rate constant that governs catalysis at low substrate concentration.

B1: GSTE14 (GSTe14) (Spodoptera littoralis) (protein)
chain: MGVKLYVMDFSPPSRACMLTCEIFGIPFEKIPVDLFKGEHLAPNYLQKNPLHTIPVLEDGDLILYDSHAIMAYLADTYGKDESWYPKDVKKRALVNQKLFFNTAVIYRRLRNITYYVFQRGRKTLEQDWLDDIAEGYGFLEAFLSKTKYIAGDHITIADIAILSHLTNLEYILPIDAKKYPKTSAWLEDFKATPYAKKHNEEGAKALNDLLKKFLTS
notes: cytosolic epsilon class
Take B1: in series [1], the Km was found to be 124.10 ± 15.66 µM, the Vmax was 89.4 µmol/min/mg, the kcat was determined as 37.4 ± 1.85 s⁻¹ and the kcat/Km amounted to 302000 ± 14900 M⁻¹ s⁻¹. In series [2], the Km is 185.37 ± 89.77 µM, the Vmax worked out at 47.3 µmol/min/mg, the kcat was found to be 19.8 ± 3.35 s⁻¹ and the kcat/Km came to 107000 ± 37300 M⁻¹ s⁻¹.

B2: GSTS6 (GSTs6) (Spodoptera littoralis) (protein)
chain: MPKKLSYFNLNGLAEPIRYILHYTNQEFEDVRYDVYSWPDPKIKASLPYGQFPVYEEDGRVLTQSLAITKYVARGTDLVPTDPWDNAFIESVIFSIMDYWKNVVPTVREPDPAKYTELRNEIIEKNIPYYFSRFNKHLEDNGGFLNGKLSWGDFVFCGVIEASDMFLGIELSKDYPAVGSLVQHIRNLPGVKEYVKSIGPYTIDLARFKYKK
notes: cytosolic sigma class
For the protein B2, in series [1], the Km amounted to 567.11 ± 131.85 µM, the Vmax is 39.3 µmol/min/mg, the kcat came out at 16.1 ± 2.28 s⁻¹ and the kcat/Km stood at 28400 ± 4020 M⁻¹ s⁻¹. In series [2], the Km was 98.24 ± 21.15 µM, the Vmax was found to be 52.7 µmol/min/mg, the kcat came out at 21.6 ± 1.46 s⁻¹ and the kcat/Km turned out to be 220000 ± 14900 M⁻¹ s⁻¹.

For the origin of these results see PMC12174363, “Multiple glutathione-S-transferases detoxify diverse glucosinolate-based defenses of Brassicales plants in a generalist lepidopteran herbivore (Spodoptera littoralis)” (Communications Biology, 2025).
